Assay results taken from publication PMC8907193, “The YΦ motif defines the structure-activity relationships of human 20S proteasome activators” (Nature Communications, 2022).
Where two headings read alike, the source gives them in different places.

Assays:
[1] = biological target: human 20S proteasome (human) (UniProt P60900)
[2] = biological target: biotinylated human 20S proteasome (human) (UniProt P60900); test: BLI

| Substance | EC50 of stimulation of h20S activity [1] | Kd [2] | koff [2] | further results |
| --- | --- | --- | --- | --- |
| PA26^YA | > 3000 nM | – | – | stimulation of h20S activity, loss against PA26^YY [1]: 80 % reduction |
| PA26^E102A (disabled-loop mutant) (from UniProt Q9U8G2) | – | – | – | Kd ([2]; natural protein): > 100 nM |
| PA26^AY | 8.3 nM | – | – | – |
| PA26^YA (from UniProt Q9U8G2) | – | 36 nM | 0.011 s⁻¹ | – |
| PA26^AY (from UniProt Q9U8G2) | – | 0.28 nM | 0.0004 s⁻¹ | – |
